Target: T1, FANCI (human, UniProt Q9NVI1 1-1328)
T1 construct: human FANCI
T1 sequence (looked up): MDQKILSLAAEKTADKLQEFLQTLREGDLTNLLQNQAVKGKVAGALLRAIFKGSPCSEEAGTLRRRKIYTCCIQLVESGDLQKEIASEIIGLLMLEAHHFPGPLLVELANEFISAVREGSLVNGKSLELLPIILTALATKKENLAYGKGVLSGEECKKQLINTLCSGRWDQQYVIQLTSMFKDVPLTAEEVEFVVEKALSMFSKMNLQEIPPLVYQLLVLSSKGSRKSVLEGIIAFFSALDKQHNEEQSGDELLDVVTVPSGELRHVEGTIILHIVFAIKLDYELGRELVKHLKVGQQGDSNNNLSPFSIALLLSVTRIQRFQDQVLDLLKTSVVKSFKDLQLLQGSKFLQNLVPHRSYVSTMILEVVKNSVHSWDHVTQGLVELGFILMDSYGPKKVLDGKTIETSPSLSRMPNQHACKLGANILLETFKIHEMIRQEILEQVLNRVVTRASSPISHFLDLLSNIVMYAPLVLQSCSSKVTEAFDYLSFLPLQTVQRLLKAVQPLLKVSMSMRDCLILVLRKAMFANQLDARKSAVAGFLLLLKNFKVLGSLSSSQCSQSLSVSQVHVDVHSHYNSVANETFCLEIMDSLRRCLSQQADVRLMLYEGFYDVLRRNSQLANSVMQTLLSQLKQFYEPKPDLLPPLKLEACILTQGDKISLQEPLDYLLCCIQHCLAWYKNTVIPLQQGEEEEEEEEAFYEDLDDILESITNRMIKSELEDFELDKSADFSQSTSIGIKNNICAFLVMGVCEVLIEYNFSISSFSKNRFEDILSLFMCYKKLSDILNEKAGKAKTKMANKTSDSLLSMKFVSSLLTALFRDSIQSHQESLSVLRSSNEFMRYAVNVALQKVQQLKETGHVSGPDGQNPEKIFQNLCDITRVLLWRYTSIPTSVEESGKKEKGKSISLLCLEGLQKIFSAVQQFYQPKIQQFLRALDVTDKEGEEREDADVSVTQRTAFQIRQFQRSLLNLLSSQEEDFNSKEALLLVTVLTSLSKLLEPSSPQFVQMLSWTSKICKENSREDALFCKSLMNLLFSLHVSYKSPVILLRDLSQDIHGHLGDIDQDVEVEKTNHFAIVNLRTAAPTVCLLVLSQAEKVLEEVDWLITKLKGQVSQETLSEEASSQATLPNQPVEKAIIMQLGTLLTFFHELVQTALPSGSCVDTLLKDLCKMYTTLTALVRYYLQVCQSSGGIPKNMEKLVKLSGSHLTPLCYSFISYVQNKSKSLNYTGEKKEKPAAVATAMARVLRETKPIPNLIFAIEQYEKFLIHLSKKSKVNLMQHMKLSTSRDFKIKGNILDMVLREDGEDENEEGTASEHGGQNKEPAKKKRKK
Assay: pull-down; same procedure as for RAD51AP1, but Strep-Tactin resin captured the complexes via the Strep tag on UAF1; USP1 or FANCI as the other protein; SDS-PAGE, Coomassie Blue
Conditions: both partners purified

binding result: binds
B1: UAF1 (natural protein)
chain: not shown
notes: human UAF1 (isoform 1), full-length; also called UAF1 (WT); UAF1 (FL); not shown: Strep-II, C-terminal, kept

Source: publication PMC6599204, “DNA requirement in FANCD2 deubiquitination by USP1-UAF1-RAD51AP1 in the Fanconi anemia DNA damage response” (Nature Communications, 2019)
